This is an account of results in PMC6495647.

For experiment [1], the target named is RecA (UniProt P0A7G6). As to the kind of experiment: SPR; another set of experiments; calculated KD for MucB and RecA; details not told.
Experiment [2] concerns the target β-subunit of DNA polymerase III holoenzyme of E. coli (E. coli) (UniProt P0A988). As to the kind of experiment: SPR; BIAcore 2000, kinetic analysis at lower ligand densities (577 RU of immobilized β, 1036 RU of immobilized MucA’ on CM5); MucB in the mobile phase; BSA reference cell; apparent constants; data not shown.
The target of experiment [3] is MucA’ protein (plasmid pKM101 (host species not stated)). As to the kind of experiment: SEC; Superdex 75 XK 16/60, 20 mM HEPES pH 7.4, 10% glycerol, 150 mM NaCl, 0.1 mM EDTA, 1 mM DTT; 1 ml of 2.5 mg/ml MucA’ applied; calibrated with protein standards.

β-subunit of DNA polymerase III holoenzyme of E. coli (E. coli), sequence (P0A988 whole entry): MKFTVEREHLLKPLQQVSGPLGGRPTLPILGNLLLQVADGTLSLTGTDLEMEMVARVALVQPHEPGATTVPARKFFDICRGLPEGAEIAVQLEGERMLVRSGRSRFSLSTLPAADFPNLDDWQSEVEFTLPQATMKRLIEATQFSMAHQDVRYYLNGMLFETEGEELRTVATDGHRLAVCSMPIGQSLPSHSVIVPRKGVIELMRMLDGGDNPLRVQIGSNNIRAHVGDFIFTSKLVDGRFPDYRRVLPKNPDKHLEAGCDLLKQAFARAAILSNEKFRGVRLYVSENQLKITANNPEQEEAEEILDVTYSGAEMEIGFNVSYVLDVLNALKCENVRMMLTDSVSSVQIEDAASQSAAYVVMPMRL
RecA, sequence (P0A7G6 whole entry): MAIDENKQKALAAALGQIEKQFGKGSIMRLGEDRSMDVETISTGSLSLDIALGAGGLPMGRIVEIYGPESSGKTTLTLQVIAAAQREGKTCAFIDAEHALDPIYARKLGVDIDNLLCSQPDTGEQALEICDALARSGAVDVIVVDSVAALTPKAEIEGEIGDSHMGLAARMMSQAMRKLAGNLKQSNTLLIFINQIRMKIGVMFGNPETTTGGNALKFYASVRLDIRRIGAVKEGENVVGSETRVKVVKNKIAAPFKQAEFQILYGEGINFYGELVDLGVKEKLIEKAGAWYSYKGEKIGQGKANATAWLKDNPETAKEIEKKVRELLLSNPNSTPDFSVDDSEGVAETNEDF

In the case of “MucB protein (from UniProt P07375 1-420) (enzyme)”, the Kd in experiment [1] is 2.41 nM. Further, in experiment [2], the Kd came to 0.31 nM, the amount bound (RU) is 349 RU, the koff came to 1.2e-05 s⁻¹ and the kon was found to be 38700 M⁻¹ s⁻¹.
In experiment [3], MucA’ protein (natural protein) had a stoichiometry N of 2.
